From the supplement of paper PMC10567573 come the findings set out here.

± gives the standard deviation.

A short description of the series: protein stability index of a GFP-peptide fusion (GPS, HEK-293T) (PSI 1-6); higher = more stable. The settings on record: c terminus: a fixed tail appended.
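Further: 24-mer peptide tiles fused after GFP, lentivirally expressed, FACS-sorted into six equal bins by GFP/DsRed ratio, decoded by Illumina sequencing, PSI is the read-weighted mean bin number.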

For the sequence DPGQQFTWEHSNLEVNKPKNRYAN [PTPRD], the protein stability index by setting is: (treatment: DMSO) 4.99 ± 0.39; (treatment: MLN4924 1 uM, 8 h) 4.98 ± 0.26.
For DPGQVGLINSNVSMVDLTSVTLED [FAN1] the same measures were 5.05 ± 0.092 and 4.79 ± 0.2.
In the same order, the values of DPSGVSGATVGRKSRRSRSESETS [C18orf25] are 5.69 ± 0.17 and 5.42 ± 0.49.
In the same order, the values of DQLFMQEKARQLLGRLKPSHTSRT [MYBL2] are 3.29 ± 0.27 and 3.76 ± 0.43.
As for DQLLLNYAKKESDLNGAQIKLREY [LMNB1], the protein stability index reads like this: (treatment: DMSO) 3.617 ± 0.031; (treatment: MLN4924 1 uM, 8 h) 3.71 ± 0.1.
For DRECKLPPPSAPASEYCPGKLSWG [WDR88] the same measures were 3.79 ± 0.13 and 3.96 ± 0.36.
For DREGYTSFWNDCISSGLRGCMLIE [GOLPH3] the same measures were 2.08 ± 0.28 and 2.31 ± 0.19.
For DRFAQDSEMKKCSDYESIEVPDSY [PPEF2] the same measures were 5.15 ± 0.23 and 5.15 ± 0.34.
With DRIRFTVNRRISIVGFGLYGSIHG [BTBD1], the protein stability index (treatment: DMSO) is 2.25 ± 0.61 and the protein stability index (treatment: MLN4924 1 uM, 8 h) came out at 2.32 ± 1.2.
In the same order, the values of DSDDDDDVAVTVDRDRFMDEFFEQ [STX1A] are 5.36 ± 0.49 and 5.43 ± 0.32.
In the same order, the values of DSDKLSGLWSRISHLVLPVQPVSS [TOR1AIP2] are 2.3 ± 0.24 and 2.32 ± 0.21.
In the case of DSGVGKSNLLSRFTRNEFNLESKS [RAB11A], the protein stability index (treatment: DMSO) worked out at 4.03 ± 0.11 and the protein stability index (treatment: MLN4924 1 uM, 8 h) was determined as 4.08 ± 0.21.
Consider DSQQPGKRRKDSEEEAASPEGKRV [FANCE], for which the protein stability index (treatment: DMSO) was 5.66 ± 0.13 and the protein stability index (treatment: MLN4924 1 uM, 8 h) is 5.5 ± 0.25.
In the same order, the values of DSYESYGNSRSAPPTRGPPPSYGG [RBMX] are 4.27 ± 0.35 and 4.33 ± 0.4.
For DTALLNLLPMLDALRFTADVRSVL [CTDNEP1] the same measures were 2.78 ± 0.48 and 2.58 ± 0.42.
For DVAVHMPCLGHTFNAGIQQAFQLP [ZBED1] the same measures were 2.53 ± 0.36 and 2.8 ± 0.36.
With DVNDNSPELTITSLFSPVTEDSPL [PCDHGA10], the protein stability index stood at 4.53 ± 0.21 (treatment: DMSO) and 4.65 ± 0.36 (treatment: MLN4924 1 uM, 8 h).
For DVSLCRWHPKPYCQALPYGPGYWM [FBXO34] the same measures were 2.33 ± 0.35 and 2.15 ± 0.32.
For DWVSDWSSRPENIPPKEFHFRHPK [BNIP3L] the same measures were 3.79 ± 0.27 and 3.68 ± 0.093.
Take EAAGGESALAPSVFKQAKDKVSDG [MAP2]: the protein stability index (treatment: DMSO) was determined as 5.46 ± 0.26 and the protein stability index (treatment: MLN4924 1 uM, 8 h) is 5.43 ± 0.32.
In the same order, the values of EAEKLERQLALPATEQAATQESTF [NOP53] are 5.43 ± 0.32 and 5.53 ± 0.1.
In the same order, the values of EAFLAQFSQLEDKFPGQSSFLWQR [TOR1AIP2] are 2.39 ± 0.56 and 2.5 ± 0.53.
For EAKEGDLHRIEIPFKFHMLHSGLV [CARM1] the same measures were 2.07 ± 0.48 and 2.49 ± 0.23.
Regarding EALGHMFMYFLRGSLPWQGLKADT [CSNK1G1], the protein stability index reads like this: (treatment: DMSO) 3.63 ± 0.22; (treatment: MLN4924 1 uM, 8 h) 3.19 ± 0.4.
EARGLRLSDLEDLEEEEEEEEEAE [IRX6] gave a protein stability index (treatment: DMSO) of 5.55 ± 0.41 and a protein stability index (treatment: MLN4924 1 uM, 8 h) of 5.5 ± 0.39.
In the same order, the values of EATNGREGLLRFSSWPFSIQDVVQ [AUP1] are 2.93 ± 0.21 and 3.09 ± 0.37.
In the same order, the values of ECGKAFSQNSSLVQHERIHTGDKP [ZNF8] are 4.49 ± 0.33 and 4.48 ± 0.15.
With EDLLLPGACPGADEAGGGAEGDSW [WEE1], the protein stability index stood at 5.53 ± 0.12 (treatment: DMSO) and 5.58 ± 0.22 (treatment: MLN4924 1 uM, 8 h).
Take EDTHVQIGQVHEEFKQNIENVSVE [FCHO1]: the protein stability index reads like this: (treatment: DMSO) 5.48 ± 0.27; (treatment: MLN4924 1 uM, 8 h) 5.49 ± 0.21.
In the same order, the values of EDVARPTQRLWDFTQSGPIVSRAT [GALNT9] are 3.99 ± 0.056 and 3.87 ± 0.33.
In the same order, the values of EDVEDHYEMGEELGSGQFAIVRKC [DAPK3] are 5.06 ± 0.099 and 5.3 ± 0.35.
In the same order, the values of EDWDSALFAELGYFTDTDELQLEA [ATF6] are 4.3 ± 0.21 and 4.65 ± 0.23.
Regarding EDYPAALPNHKPKGTFKDYVRDRA [ETS1], the protein stability index is, setting by setting: (treatment: DMSO) 4.57 ± 0.1; (treatment: MLN4924 1 uM, 8 h) 4.62 ± 0.32.
For EEADFLSAETGSPRLTMHYPCLEK [IRX6] the same measures were 4.49 ± 0.19 and 4.56 ± 0.065.
In the same order, the values of EEAPAVTAGLKIFEPPAPGEGNSS [TNFSF13B] are 5.33 ± 0.23 and 5.3 ± 0.14.
For EEDDGRGRGLLRWDSFSAWLHCVC [DENND6A] the same measures were 3.06 ± 0.25 and 3.04 ± 0.29.
Take EEDLVLTCEDDEDEELGGSSRVPV [ZBTB22]: the protein stability index was 5.67 ± 0.24 (treatment: DMSO) and 5.6 ± 0.21 (treatment: MLN4924 1 uM, 8 h).
For EEEEEEEEAEAGEEAVPEEEGPTV [CHGA] the same measures were 5.34 ± 0.25 and 5.4 ± 0.25.
In the same order, the values of EEELIRIFQEQQKKWQQYRSVRRE [FAM9B] are 3.92 ± 0.33 and 4.07 ± 0.49.
On to EEENDYRNLDASPTYKGLLMSLQN [CEP70], for which the protein stability index is 3.67 ± 0.18 (treatment: DMSO) and 3.63 ± 0.34 (treatment: MLN4924 1 uM, 8 h).
For EEENPGGCEDEYLVNPTCQVLVKD [ZER1] the same measures were 5.54 ± 0.22 and 5.54 ± 0.22.
For EEETQFYISETVLAIDAIHQLGFI [STK38L] the same measures were 2.48 ± 0.51 and 2.58 ± 0.2.
In the same order, the values of EEFNVLEMEVMRRQLYAVNRRLRA [FATE1] are 2.92 ± 0.21 and 3.1 ± 0.5.
For the sequence EEGTSDSNTGSESNSATVEEPPTD [SMARCE1], the protein stability index is, setting by setting: (treatment: DMSO) 5.36 ± 0.44; (treatment: MLN4924 1 uM, 8 h) 5.67 ± 0.2.
For EEPVFEAVINWVKHAKKEREESLP [KLHL12], the protein stability index is 4.16 ± 0.48 (treatment: DMSO) and 4.17 ± 0.28 (treatment: MLN4924 1 uM, 8 h).
EERATRLAELQEQLKAVHEQLAAL [BRD3]: the protein stability index worked out at 4.59 ± 0.22 (treatment: DMSO) and 4.31 ± 0.062 (treatment: MLN4924 1 uM, 8 h).
For EERNRFTETREEDVTDEHGEREPF [FAM9B] the same measures were 5.62 ± 0.17 and 5.58 ± 0.12.
In the same order, the values of EESRDPTLYANNVQRVMAQALGIP [LPCAT4] are 3.71 ± 0.39 and 3.89 ± 0.33.
In the same order, the values of EESRISVPVHSFASLNIKTTVPEV [PRPH] are 4.05 ± 0.35 and 3.98 ± 0.39.
As for EETHLEETTESQQNGEEGTSTPED [SMARCE1], the protein stability index stood at 5.48 ± 0.29 (treatment: DMSO) and 5.63 ± 0.23 (treatment: MLN4924 1 uM, 8 h).
In the same order, the values of EFCEPAFVVGNCLQIASDSHQYDR [PCMTD1] are 3.5 ± 0.49 and 3.51 ± 0.31.
For EGREAPALVAAGGAPEDDEEDDGR [DENND6A] the same measures were 5.68 ± 0.29 and 5.72 ± 0.3.
